The source of these data is paper PMC4756856 (Nucleic Acids Research, 2016).

The series concerns the molecule itself. In words: SEC-MALS. For orientation: SEC sorts molecules by how far they enter the pores of the column.

As usually defined, the stoichiometry N is a count of units in the complex or per binding partner.

B1: TyrRSΔE2–4′ (TyrRSΔE2–4 splice variant of human tyrosyl-tRNA synthetase without the flexible linker aa343–360) (natural protein, UniProt P54577 1-528, looked up)
chain: MGDAPSPEEKLHLITRNLQALDEEYLKVDAQFGGIDQRKIFTFAEKYLPALGYSKRVHLMNPMVPGLTGSKMSSSEEESKIDLLDRKEDVKKKLKKAFCEPGNVENNGVLSFIKHVLFPLKSEFVILRDEKWGGNKTYTAYVDLEKDFAAEVVHPGDLKNSVEVALNKLLDPIREKFNTPALKKLASAAYPEEVIPSRLDIRVGKIITVEKHPDADSLYVEKIDVGEAEPRTVVSGLVQFVPKEELQDRLVVVLCNLKPQKMRGVESQGMLLCASIEGINRQVEPLDPPAGSAPGEHVFVKGYEKGQPDEELKPKKKVFEKLQADFKISEECIAQWKQTNFMTKLGSISCKSLKGGNIS
For the protein B1, the “stoichiometry N” value came out at 2.
